Patent publication US20240076386A1 (Pfizer, published 2024)

T1: cynomolgus monkey E-selectin extracellular domain with 10 His purification tail (cynomolgus monkey, UniProt P16581 22-554 (human entry))
T1 construct: also called cynomolgus E-selectin; truncated cynomolgus monkey E-selectin
T1 chain: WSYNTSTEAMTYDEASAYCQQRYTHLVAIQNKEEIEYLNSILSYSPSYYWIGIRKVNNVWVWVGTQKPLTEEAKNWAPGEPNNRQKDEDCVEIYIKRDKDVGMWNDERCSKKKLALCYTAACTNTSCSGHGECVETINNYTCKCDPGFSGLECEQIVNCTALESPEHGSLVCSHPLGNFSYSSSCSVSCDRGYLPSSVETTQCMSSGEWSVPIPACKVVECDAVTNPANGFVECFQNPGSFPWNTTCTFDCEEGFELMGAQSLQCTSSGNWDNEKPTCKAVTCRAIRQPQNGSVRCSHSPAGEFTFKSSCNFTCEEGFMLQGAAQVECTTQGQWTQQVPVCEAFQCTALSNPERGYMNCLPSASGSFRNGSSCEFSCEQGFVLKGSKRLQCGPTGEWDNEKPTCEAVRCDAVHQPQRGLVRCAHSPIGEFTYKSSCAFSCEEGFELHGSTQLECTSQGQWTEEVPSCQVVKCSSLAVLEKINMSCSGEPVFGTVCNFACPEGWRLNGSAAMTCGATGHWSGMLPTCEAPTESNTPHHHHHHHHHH

T2: rabbit E-selectin (rabbit, UniProt P27113 24-495, limits assumed)
T2 sequence (looked up): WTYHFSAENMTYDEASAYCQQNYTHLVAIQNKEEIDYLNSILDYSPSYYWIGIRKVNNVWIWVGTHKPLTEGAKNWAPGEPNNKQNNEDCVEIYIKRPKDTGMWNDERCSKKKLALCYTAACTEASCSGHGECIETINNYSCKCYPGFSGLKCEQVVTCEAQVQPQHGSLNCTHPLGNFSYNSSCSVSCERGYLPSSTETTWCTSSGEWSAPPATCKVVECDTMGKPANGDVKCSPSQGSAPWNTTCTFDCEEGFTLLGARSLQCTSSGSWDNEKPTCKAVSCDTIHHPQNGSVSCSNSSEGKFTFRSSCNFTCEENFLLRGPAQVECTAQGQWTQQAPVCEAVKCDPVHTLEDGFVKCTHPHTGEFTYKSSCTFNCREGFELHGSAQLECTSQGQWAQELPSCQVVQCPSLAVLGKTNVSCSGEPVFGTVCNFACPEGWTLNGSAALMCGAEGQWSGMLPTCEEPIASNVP

T3: cynomolgus monkey E-selectin, cell-surface expressed (cynomolgus monkey, UniProt P16581 22-610 (human entry))
T3 construct: also called CHO-cynomolgus monkey E-selectin cells; cynomolgus monkey CHO-E
T3 chain: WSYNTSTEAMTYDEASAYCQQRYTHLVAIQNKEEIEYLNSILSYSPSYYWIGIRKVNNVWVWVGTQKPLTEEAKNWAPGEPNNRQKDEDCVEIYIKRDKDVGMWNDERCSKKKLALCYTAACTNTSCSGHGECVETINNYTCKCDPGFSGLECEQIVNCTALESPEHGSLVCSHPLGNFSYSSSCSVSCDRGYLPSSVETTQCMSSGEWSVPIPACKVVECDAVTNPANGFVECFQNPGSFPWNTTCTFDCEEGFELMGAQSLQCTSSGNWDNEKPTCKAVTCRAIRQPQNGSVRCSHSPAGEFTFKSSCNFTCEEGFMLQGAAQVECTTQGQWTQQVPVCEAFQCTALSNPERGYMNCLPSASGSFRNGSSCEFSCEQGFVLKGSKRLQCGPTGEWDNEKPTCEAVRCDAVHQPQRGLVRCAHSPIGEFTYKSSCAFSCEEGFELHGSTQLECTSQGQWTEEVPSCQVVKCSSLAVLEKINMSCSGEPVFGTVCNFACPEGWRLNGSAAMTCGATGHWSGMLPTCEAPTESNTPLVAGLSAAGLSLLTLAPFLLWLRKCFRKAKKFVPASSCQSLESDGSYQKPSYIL


Legend:
[1] = molecular target: T1, cynomolgus monkey E-selectin …; assay: AlphaLISA competition vs sialyl Lewis A-PAA-biotin; AlphaLISA neutralization assay (ligand competition), not SPR
Procedure: The neutralization ability of anti-E-selectin antibodies was measured in an AlphaLISA homogenous competition assay. […] This was incubated at room temperature for 15 minutes, followed by addition of 1.4 μL of human, mouse or cynomolgus monkey E-selectin added to a final concentration of 7 nM. This was again incubated at room temperature for 15 minutes. To this, 1.4 μL AlphaLISA beads was added (Ni-donor/SA-acceptor) for a final assay concentration of 10 μg/mL. This was incubated in the dark at room temperate for at least 10 hours. The plates were then read using the AlphaLISA protocol (Envision).

rabbit E-selectin = molecular target: T2, rabbit E-selectin; assay: SPR (BIAcore), single sensorgram per selectin
[2] = molecular target: T3, cynomolgus monkey E-selectin, …; assay: flow cytometry, CHO cells, 6 experiments
Procedure: Binding studies with CHO cells were performed in duplicate using two rows of a 96-well round bottom plate, whereas, binding studies with primary endothelial cells were performed in a single row of a 96-well V-bottom plate. The plates were centrifuged at 300×g for 2 minutes at 4° C. and the cells were resuspended and blocked by incubation in the CHO buffer for 10 minutes on wet ice. After incubation, the cells were centrifuged at 300×g for 2 minutes at 4° C. to remove the buffer. […] After incubation with the antibody, the cells were washed three times by centrifugation at 300×g for 1 minute at 4° C. and resuspended in cold CHO buffer. The washed cells were resuspended and incubated with 100 μL of 1:1000 dilution of AlexaFluor647-conjugated goat anti-human F(ab′)₂ Fragment (Fcγ fragment specific antibody, [Jackson Innnnunoresearch, 109-606-170] for 45 minutes (CHO cells) or 30 minutes (endothelial cells) on wet ice. The cells were washed three or four times prior to resuspension in CHO buffer for flow cytometric analysis. A Becton Dickinson LSRFortessa instrument using 640 nanometer laser line was used to acquire cell fluorescence data. Geometric mean fluorescence of cells was analyzed by FlowJo software package (FlowJo, LLC) and plotted against antibody concentration. […]

| Binder | EC50 [1] [nM] | binding result (rabbit E-selectin) | EC50 [2] [nM] |
| --- | --- | --- | --- |
| anti-E-selectin antibody 0158 chimera (antibody, human IgG1, kappa, V domains shown, rat VH/VL on effector-null human IgG1 and human kappa) VH: QVQLKESGPGLVQPSETLSLTCTVSGFSISTYNVHWLRQPPGKGLEWMGMMWSGGSPDYNSALKSRLSISRDTSKNQVFLKMNSLQSEDTTTYYCARWGGGFDYWGQGVMVTVSS VL: DIVLTQSPTTLSVTPGETVSLSCRASHSIGTNLHWYQQKTNESPRLLIKFTSQSISGIPSRFSASGSGTDFTLNINNVEFDDVSSYFCQQTQSWPLTFGSGTKLEIKR | < 1 | – | – |
| optimized anti-E-selectin antibody 1444 (antibody, human IgG1, kappa, V domains shown, effector-null human IgG1, kappa) VH: EVQLVESGGGLVQPGGSLRLSCAASGYAIRSAYMHWVRQAPGKGLEWVARIDPANGNTIYVDSVTGRFTISADNAKNSAYLQMNSLRAEDTAVYYCAMDLYSTSEYWGQGTLVTVSS VL: DIQMTQSPSSLSASVGDRVTITCKTSQNIERYLNWYQQKPGKAPKLLIYAASSLQSGVPSRFSGSGSGTDFTLTISSLQPEDFATYFCLQDNAWPLTFGQGTKVEIKR | – | no binding | 0.75 to 1.37 |
